Assay results published in publication PMC2581427.
Changes are numbered by the printed parent chain.

B1: Shox2 probe (dsDNA)
DNA 1: GCAAAATCCACGCTTAATTAAATTAATTAGGGA
DNA 2: GTCCCTAATTAATTTAATTAAGCGTGGATTTTG
B2: Ebf3 probe (dsDNA)
DNA 1: GCGATTTTCCCGATTAATTAAAATATTAACGCA
DNA 2: GTGCGTTAATATTTTAATTAATCGGGAAAATCG
B3: Lmo1 probe (dsDNA)
DNA 1: GTAATGAATTGATTTAATTAACAGGGGAGTCTGA
DNA 2: GTCAGACTCCCCTGTTAATTAAATCAATTCATTA
B4: Lmo1mut1 (dsDNA)
DNA 1: B3 DNA 1 with A16C, A17C
DNA 2: B3 DNA 2 with T19G, T20G
B5: Lmo1mut2 (dsDNA)
DNA 1: B3 DNA 1 with T9C, T10C
DNA 2: B3 DNA 2 with A26G, A27G

Experiments:
[1] = biological target: T1, GST-Arx (286-430) (UniProt O35085 286-430); assay: EMSA
[2] = biological target: T1, GST-Arx (286-430); assay: EMSA; remark: listed apart in the source
[3] = biological target: T1, GST-Arx (286-430); assay: competition

T1 sequence (O35085 286-430): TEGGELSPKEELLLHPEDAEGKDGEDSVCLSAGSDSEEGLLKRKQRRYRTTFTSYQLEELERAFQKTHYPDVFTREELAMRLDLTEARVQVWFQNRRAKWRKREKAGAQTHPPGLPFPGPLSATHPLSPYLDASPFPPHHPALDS

| Binder | binding result [1] | binding result [3] | further results |
| --- | --- | --- | --- |
| B1 | binds | – | – |
| B2 | – | – | binding result [2]: binds |
| B3 | binds | – | – |
| B4 | – | no binding | – |
| B5 | – | binds | – |
